Tested on: ORC (origin recognition complex) (Saccharomyces cerevisiae)
Assay: EMSA
Details: 25 mM Tris-HCl pH 8.0, 5 mM MgCl2, 150 mM KCl, 40 ug BSA, 5% glycerol, 5 mM DTT, 1 ug calf-thymus DNA, 2 mM ATP; 5 pM probe, ORC 0.3-30 nM; 25 C 20 min; 3.5% …

Q: For ARS105 probe, which Kd is on record?
A: The Kd was greater than 419 nM.

Q: With ARS201 probe as the substance, how does the Kd read?
A: Its Kd is 20.1 nM.

Q: For ARS214 probe, which Kd is on record?
A: Its Kd is 41.3 nM.

Q: For ARS219.5 probe, which Kd is on record?
A: Its Kd is greater than 419 nM.

Q: With ARS305 probe as the substance, how does the Kd read?
A: Its Kd is 33.1 nM.

Q: Which Kd does the source give for ARS317 (HMR-E) probe here?
A: The Kd was 7.22 nM.

Q: How did the Kd turn out when ARS416 (ARS1) probe was run?
A: Its Kd is 35.1 nM.

Q: ARS422 probe was tested. Which Kd did it give?
A: The Kd was 9.85 nM.

Q: For ARS423 probe, which Kd is on record?
A: The Kd was 6.76 nM.

Q: With ARS428 probe as the substance, how does the Kd read?
A: The Kd was 91.6 nM.

Q: How did the Kd turn out when ARS512 probe was run?
A: Its Kd is 55.1 nM.

Q: ARS514 probe was tested. Which Kd did it give?
A: Its Kd is 4.12 nM.

Q: For ARS516 probe, which Kd is on record?
A: Its Kd is 27.8 nM.

Q: How did the Kd turn out when ARS604 probe was run?
A: The Kd was 61 nM.

Q: Which Kd does the source give for ARS716 probe here?
A: Its Kd is 39.2 nM.

Q: How did the Kd turn out when ARS720 probe was run?
A: Its Kd is 33.9 nM.

Q: ARS728 probe was tested. Which Kd did it give?
A: The Kd was 8.38 nM.

Q: For ARS818 probe, which Kd is on record?
A: Its Kd is 94 nM.

Q: Which Kd does the source give for ARS822 probe here?
A: Its Kd is 260 nM.

Q: For ARS824 probe, which Kd is on record?
A: The Kd was 38.1 nM.

Q: With ARS911 probe as the substance, how does the Kd read?
A: Its Kd is 87.3 nM.

Q: For ARS920 probe, which Kd is on record?
A: The Kd was 8.65 nM.

Q: ARS1004 probe was tested. Which Kd did it give?
A: The Kd was 92.3 nM.

Q: ARS1005 probe was tested. Which Kd did it give?
A: The Kd was greater than 419 nM.

Q: With ARS1011 probe as the substance, how does the Kd read?
A: The Kd was 11.1 nM.

Q: With ARS1015 probe as the substance, how does the Kd read?
A: The Kd was 63.1 nM.

Q: ARS1021 probe was tested. Which Kd did it give?
A: The Kd was 17.9 nM.

Q: Which Kd does the source give for ARS1114 probe here?
A: The Kd was 33.3 nM.

Q: For ARS1123 probe, which Kd is on record?
A: Its Kd is 12.3 nM.

Q: ARS1215 probe was tested. Which Kd did it give?
A: Its Kd is 55.8 nM.

Q: For ARS1307 probe, which Kd is on record?
A: The Kd was 83.7 nM.

Q: Which Kd does the source give for ARS1320 probe here?
A: Its Kd is 20.9 nM.

Q: Which Kd does the source give for ARS1323 probe here?
A: The Kd was 58.6 nM.

Q: ARS1325 probe was tested. Which Kd did it give?
A: The Kd was 63 nM.

Q: ARS1329 probe was tested. Which Kd did it give?
A: Its Kd is 76.8 nM.

Q: ARS1332 probe was tested. Which Kd did it give?
A: Its Kd is 35.3 nM.

Q: For ARS1405 probe, which Kd is on record?
A: Its Kd is 97.2 nM.

Q: For ARS1413 probe, which Kd is on record?
A: Its Kd is 419 nM.

Q: With ARS1420 probe as the substance, how does the Kd read?
A: Its Kd is 17.8 nM.

Q: ARS1513 probe was tested. Which Kd did it give?
A: The Kd was 56.3 nM.

Q: Which Kd does the source give for ARS1521 probe here?
A: The Kd was 90.1 nM.

Q: For ARS1528 probe, which Kd is on record?
A: Its Kd is greater than 419 nM.

Q: With ARS1529.5 probe as the substance, how does the Kd read?
A: The Kd was 192 nM.

Q: ARS1601 probe was tested. Which Kd did it give?
A: Its Kd is 32.8 nM.

Q: Which Kd does the source give for ARS1625 probe here?
A: The Kd was 8.67 nM.

Q: With ARS1631 probe as the substance, how does the Kd read?
A: The Kd was 26.8 nM.
